Results from patent publication US20150203575A1 (Genentech, published 2015).
Each block holds one binder with its values, some of them ahead of it.

Assays:
MAG expressed on cells = biological target: T1, MAG expressed on cells (human, UniProt P20916 20-626); assay: cDNA expression library screen with PILRα-AP supernatant on COS7 transfectants; positive clones further analysed by FACS
T1 construct: Clone of the Origene human cDNA library; also called Myelin associated glycoprotein; SIGLEC4A
T1 sequence: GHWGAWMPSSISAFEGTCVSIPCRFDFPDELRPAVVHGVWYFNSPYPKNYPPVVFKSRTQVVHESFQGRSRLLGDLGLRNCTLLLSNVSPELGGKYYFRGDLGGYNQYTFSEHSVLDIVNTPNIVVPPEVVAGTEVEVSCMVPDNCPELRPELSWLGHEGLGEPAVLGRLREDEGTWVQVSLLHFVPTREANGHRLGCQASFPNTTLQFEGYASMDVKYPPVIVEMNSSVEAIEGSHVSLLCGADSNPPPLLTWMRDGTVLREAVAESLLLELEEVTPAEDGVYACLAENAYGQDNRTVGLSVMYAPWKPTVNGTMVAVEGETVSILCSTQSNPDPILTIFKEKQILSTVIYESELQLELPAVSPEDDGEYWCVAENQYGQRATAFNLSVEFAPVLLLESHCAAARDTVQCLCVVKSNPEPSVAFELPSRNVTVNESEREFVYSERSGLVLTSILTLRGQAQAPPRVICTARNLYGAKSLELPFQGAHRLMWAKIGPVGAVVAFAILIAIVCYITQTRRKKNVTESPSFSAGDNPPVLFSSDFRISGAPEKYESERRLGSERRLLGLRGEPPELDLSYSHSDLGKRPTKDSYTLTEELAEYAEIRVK
Experimental: COS7 cells were plated in a 24-well format and transfected with 10 ul of Origene library DNA (Origene, human DNA library containing 20 k genes) per well with Fugene 6 Reagent. Two days later, cells were incubated with human or mouse PILRα-Ap supernatants for 45 min at room temperature (RT). Then cells were fixed with 4% PFA for 15 min at RT. After removing fixation buffer, cells were blocked with 100 mM Glycine in HBS (20 mM Hepes, PH7.2, 150 mM NaCl) for 15 min at RT. Cells were then rinsed and incubated in HBS for 90 min at 65° C. HBS was removed and Western Blue Substrate (Promega) was added and color was developed for 30 min to 1 hr.

BR3 expressed on cells = biological target: T2, BR3 expressed on cells (human, UniProt Q96RJ3 1-184); assay: flow cytometry, transfected 293T cells, 2 µg/ml
T2 construct: Clone of the Origene human cDNA library
T2 sequence: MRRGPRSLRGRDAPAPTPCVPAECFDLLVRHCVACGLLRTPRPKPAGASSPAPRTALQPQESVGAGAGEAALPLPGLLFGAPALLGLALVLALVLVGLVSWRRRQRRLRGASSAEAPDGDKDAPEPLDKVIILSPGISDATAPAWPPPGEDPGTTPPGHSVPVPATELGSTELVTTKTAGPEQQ

[1] = biological target: T3, IL-2Ra expressed on cells (human, UniProt P01589 22-272); assay: flow cytometry, transfected 293T cells, 2 µg/ml
T3 construct: Clone of the Origene human cDNA library; also called Interleukin 2 receptor alpha
T3 sequence: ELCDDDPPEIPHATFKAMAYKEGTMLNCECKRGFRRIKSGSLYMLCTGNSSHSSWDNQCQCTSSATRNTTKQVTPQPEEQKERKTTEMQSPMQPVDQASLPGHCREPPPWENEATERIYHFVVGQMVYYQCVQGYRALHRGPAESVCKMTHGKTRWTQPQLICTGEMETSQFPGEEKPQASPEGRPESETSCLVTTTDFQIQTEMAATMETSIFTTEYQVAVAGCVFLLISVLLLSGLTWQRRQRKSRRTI

PSS8 expressed on cells = biological target: T4, PSS8 expressed on cells (human, UniProt Q16651 30-343); assay: flow cytometry, transfected 293T cells, 2 µg/ml
T4 construct: Clone of the Origene human cDNA library; also called Protease serine 8; prostasin

[2] = biological target: T5, CLEC4G expressed on cells (human, UniProt Q6UXB4 1-293); assay: flow cytometry, transfected 293T cells
T5 construct: Clone of the Origene human cDNA library; also called C type lectin superfamily 4 member G
T5 sequence: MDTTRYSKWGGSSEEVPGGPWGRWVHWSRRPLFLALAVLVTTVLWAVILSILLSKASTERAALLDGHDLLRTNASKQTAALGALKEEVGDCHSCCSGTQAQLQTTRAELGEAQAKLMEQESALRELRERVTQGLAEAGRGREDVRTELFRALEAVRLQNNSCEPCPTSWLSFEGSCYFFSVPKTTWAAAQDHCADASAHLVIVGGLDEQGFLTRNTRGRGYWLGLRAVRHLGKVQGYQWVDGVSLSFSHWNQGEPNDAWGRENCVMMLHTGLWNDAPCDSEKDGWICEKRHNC

T4 sequence (Q16651 30-343 limits assumed): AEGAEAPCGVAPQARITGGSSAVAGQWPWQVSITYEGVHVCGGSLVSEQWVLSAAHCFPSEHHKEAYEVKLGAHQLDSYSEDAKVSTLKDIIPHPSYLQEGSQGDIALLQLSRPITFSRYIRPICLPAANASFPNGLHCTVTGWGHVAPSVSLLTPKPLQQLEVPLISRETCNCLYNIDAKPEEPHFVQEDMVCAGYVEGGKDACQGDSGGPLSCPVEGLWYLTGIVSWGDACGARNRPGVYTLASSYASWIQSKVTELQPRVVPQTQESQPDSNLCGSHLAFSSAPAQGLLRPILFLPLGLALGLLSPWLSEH

binding result (MAG expressed on cells): binds
B1: hPILRα-AP (other)
chain: QPSGSTGSGPSYLYGVTQPKHLSASMGGSVEIPFSFYYPWELATAPDVRISWRRGHFHRQSFYSTRPPSIHKDYVNRLFLNWTEGQKSGFLRISNLQKQDQSVYFCRVELDTRSSGRQQWQSIEGTKLSITQAVTTTTQRPSSMTTTWRLSSTTTTTGLRVTQGKRRSDSWHISLET
notes: Used as culture supernatant; also called human PILRα-AP; Alkaline phosphatase (AP)-tagged PILRα construct; not shown: C-terminal alkaline phosphatase (AP) tag

B2: mPILRα-Fc (Fc fusion)
chain: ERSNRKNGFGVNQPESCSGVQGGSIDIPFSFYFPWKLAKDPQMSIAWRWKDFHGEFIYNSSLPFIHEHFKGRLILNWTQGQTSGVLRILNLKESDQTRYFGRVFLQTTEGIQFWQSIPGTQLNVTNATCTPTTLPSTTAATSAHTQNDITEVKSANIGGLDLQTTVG
notes: also called mouse PILRα-Fc; WT mPILRα-Fc; not shown: Fc of mouse IgG2a (PILRα-mIgG2a, called PILRα-Fc)
% cells in lower right quadrant (BR3 expressed on cells): 34.1% | % cells in lower right quadrant [1]: 14.1% | % cells in lower right quadrant (PSS8 expressed on cells): 0.024%

B3: mPILRαR133A-Fc (Fc fusion)
chain: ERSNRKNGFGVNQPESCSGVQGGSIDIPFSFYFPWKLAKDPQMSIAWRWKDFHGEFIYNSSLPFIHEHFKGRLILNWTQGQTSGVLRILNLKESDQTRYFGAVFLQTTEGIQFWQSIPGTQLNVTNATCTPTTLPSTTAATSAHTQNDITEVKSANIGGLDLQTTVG
notes: Arg mutant of mPILRα-Fc; also called mPILRα133A-Fc; variant mPILRα (R133A); not shown: Fc of mouse IgG2a (PILRα-mIgG2a, called PILRα-Fc)
binding result [2]: no binding (tested: 50 µg/ml)
